Results from the RNAGym collection of RNA variant scans (doi:10.1021/acssynbio.7b00057).

B1: Pistol ribozyme (parent)
chain: GGGUCGUUGUUCCAUAAUCGCGUGGAUAUGGCACGCAAGUUUCUACCGGGCACCGUAAAUGUCCGACUGGAGCCGUUCGGGCGGCUAUAAACAGACCUCAGGCCCGAAGCGUGGCGGCACCUGCCGCCGGUGGUAAAAAAGAUCGGAAGAGCACACGUCU

Variants of: B1
Experiment: aptazyme ON/OFF ratio, guanine; higher = stronger switching; co-transcriptional cleavage with and without guanine

| Variant | aptazyme ON/OFF ratio |
| --- | --- |
| U7C U8C G9A U10A U11A C12U C13G | 1.13 |
| U7C U8C G9A U10A U11A C12U C13U | 1.11 |
| U7C U8C G9A U10A U11A C12U C13A | 1.27 |
| U7C U8A U10C U11A C12G C13A | 1.14 |
| U7C U8A U10C U11A C12G C13G | 1.25 |
| U7C U8A U10C U11A C12G C13U | 1.09 |
| U7C U8C G9A U10A U11C C12G C13G | 1.4 |
| U7C U8C G9A U10A U11C C12G C13A | 1.4 |
| U7C U8C G9A U10A U11C C12G C13U | 1.31 |
| U7C U8A U10G U11A C12A | 1.22 |
| U7C U8A U10G U11A C12U | 1.16 |
| U7C U8A U10G U11A C12G | 1.33 |
| U7C U8C G9A U10G | 1.56 |
| U7C U8C G9A U10C | 1.45 |
| U7C U8C G9A U10A | 1.54 |
| U7C U8C G9A U10A U11G | 1.55 |
| U7C U8C G9A U10A U11A | 3.49 |
| U7C U8C G9A U10A U11C | 1.21 |
| U7C U8C G9A U10A U11A C12A C13U | 1.19 |
| U7C U8C G9A U10A U11A C12A C13A | 1.2 |
| U7C U8C G9A U10A U11A C12A C13G | 1.16 |
| U7C U8A U10G U11C C12U C13U | 1.41 |
| U7C U8A U10G U11C C12U C13A | 1.35 |
| U7C U8A U10G U11C C12U C13G | 1.23 |

| Variant | aptazyme ON/OFF ratio |
| --- | --- |
| U7C U8A U10G C13U | 1.28 |
| U7C U8A U10G C13G | 1.14 |
| U7C U8A U10G C13A | 1.52 |
| U7C U8C G9A U10G C12G C13A | 1.2 |
| U7C U8C G9A U10G C12G C13U | 1.16 |
| U7C U8C G9A U10G C12G C13G | 1.16 |
| U7C U8A U10G U11A C12U C13G | 1.24 |
| U7C U8A U10G U11A C12U C13U | 1.33 |
| U7C U8A U10G U11A C12U C13A | 1.3 |
| U7C U8A U10G U11G C13A | 1.23 |
| U7C U8A U10G U11G C13U | 1.32 |
| U7C U8A U10G U11G C13G | 1.12 |
| U7C U8A U11C C12A C13G | 1.18 |
| U7C U8A U11C C12A C13A | 1.29 |
| U7C U8A U11C C12A C13U | 1.25 |
| U7C U8C G9A U10C C13G | 1.35 |
| U7C U8C G9A U10C C13U | 1.52 |
| U7C U8C G9A U10C C13A | 1.47 |
| U7C U8A U10G C12A C13U | 1.27 |
| U7C U8A U10G C12A C13A | 1.2 |
| U7C U8A U10G C12A C13G | 1.07 |
| U7C U8C G9A U10C U11G C12A C13G | 1.16 |
| U7C U8C G9A U10C U11G C12A C13A | 1.28 |
| U7C U8C G9A U10C U11G C12A C13U | 1.52 |

| Variant | aptazyme ON/OFF ratio |
| --- | --- |
| U7C U8C G9A U10A U11A C13A | 1.18 |
| U7C U8C G9A U10A U11A C13U | 1.25 |
| U7C U8C G9A U10A U11A C13G | 1.2 |
| U7C U8C C12G C13G | 1.14 |
| U7C U8C C12G C13A | 1.12 |
| U7C U8C C12G C13U | 1.15 |
| U7C U8A U10C U11A C12U C13G | 1.17 |
| U7C U8A U10C U11A C12U C13A | 1.16 |
| U7C U8A U10C U11A C12U C13U | 1.16 |
| U7C U8A U10G U11C C12A C13A | 1.37 |
| U7C U8A U10G U11C C12A C13G | 1.11 |
| U7C U8A U10G U11C C12A C13U | 1.45 |
| U7C U8C G9A U10C U11C C12G | 1.19 |
| U7C U8C G9A U10C U11C C12A | 1.25 |
| U7C U8C G9A U10C U11C C12U | 1.41 |
| U7C U8C G9A U10A U11G C12U C13U | 1.16 |
| U7C U8C G9A U10A U11G C12U C13G | 1.21 |
| U7C U8C G9A U10A U11G C12U C13A | 1.13 |
| U7C U8A U10C U11G C12U C13A | 1.28 |
| U7C U8A U10C U11G C12U C13U | 1.35 |
| U7C U8A U10C U11G C12U C13G | 1.16 |
| U7C U8A U10G C12U C13U | 1.24 |
| U7C U8A U10G C12U C13G | 1.13 |
| U7C U8A U10G C12U C13A | 1.34 |

| Variant | aptazyme ON/OFF ratio |
| --- | --- |
| U7C U8A U11C C13G | 1.06 |
| U7C U8A U11C C13A | 1.1 |
| U7C U8A U11C C13U | 1.04 |
| U7C U8C G9A U10A C13U | 2.14 |
| U7C U8C G9A U10A C13A | 1.15 |
| U7C U8C G9A U10A C13G | 1.1 |
| U7C U8C G9A U10C U11C C12G C13G | 1.24 |
| U7C U8C G9A U10C U11C C12G C13U | 1.29 |
| U7C U8C G9A U10C U11C C12G C13A | 1.5 |
| U7C U8C G9A U10A C12A C13G | 1.12 |
| U7C U8C G9A U10A C12A C13A | 1.19 |
| U7C U8C G9A U10A C12A C13U | 1.21 |
| U7C U8A U10G U11C C12G | 1.53 |
| U7C U8A U10G U11C C12A | 1.62 |
| U7C U8A U10G U11C C12U | 1.09 |
| U7C U8A U10C U11C C12G C13A | 1.2 |
| U7C U8A U10C U11C C12G C13G | 1.12 |
| U7C U8A U10C U11C C12G C13U | 1.09 |
| U7C U8A U10G U11C C12G C13U | 1.38 |
| U7C U8A U10G U11C C12G C13A | 1.3 |
| U7C U8A U10G U11C C12G C13G | 1.14 |
| U7C U8C G9A U10C U11A C12A | 1.51 |
| U7C U8C G9A U10C U11A C12G | 1.23 |
| U7C U8C G9A U10C U11A C12U | 1.22 |

| Variant | aptazyme ON/OFF ratio |
| --- | --- |
| U7C U8C G9A U10A U11G C13U | 1.21 |
| U7C U8C G9A U10A U11G C13A | 1.21 |
| U7C U8C G9A U10A U11G C13G | 1.19 |
| U7C U8A U10G C12G C13A | 1.13 |
| U7C U8A U10G C12G C13U | 1.41 |
| U7C U8A U10G C12G C13G | 1.15 |
| U7C U8C G9A U10A U11A C12G C13A | 1.21 |
| U7C U8C G9A U10A U11A C12G C13U | 1.15 |
| U7C U8C G9A U10A U11A C12G C13G | 1.12 |
| U7C U8A U10C U11A C12A C13U | 1.14 |
| U7C U8A U10C U11A C12A C13G | 1.17 |
| U7C U8A U10C U11A C12A C13A | 1.2 |
| U7C U8C G9A U10C U11A C12A C13G | 1.4 |
| U7C U8C G9A U10C U11A C12A C13U | 1.18 |
| U7C U8C G9A U10C U11A C12A C13A | 1.18 |
| U7C U8A U10G U11G C12G C13U | 1.25 |
| U7C U8A U10G U11G C12G C13G | 1.17 |
| U7C U8A U10G U11G C12G C13A | 1.08 |
| U7C U8C G9A U10A U11C C12A C13G | 1.18 |
| U7C U8C G9A U10A U11C C12A C13U | 1.31 |
| U7C U8C G9A U10A U11C C12A C13A | 1.17 |
| U7C U8A U10G U11G C12U C13A | 1.21 |
| U7C U8A U10G U11G C12U C13G | 1.22 |
| U7C U8A U10G U11G C12U C13U | 1.44 |

| Variant | aptazyme ON/OFF ratio |
| --- | --- |
| U7C U8A U10C C12U C13U | 1.54 |
| U7C U8C C12G | 1.18 |
| U7C U8C C12U | 1.75 |
| U7C U8C C12A | 1.37 |
| U7C U8A U11A C12U C13A | 1.16 |
| U7C U8A U11A C12U C13U | 1.24 |
| U7C U8A U11A C12U C13G | 1.15 |
| U7C U8C G9A U10C C12U C13A | 1.22 |
| U7C U8C G9A U10C C12U C13G | 1.26 |
| U7C U8C G9A U10C C12U C13U | 1.32 |
| U7C U8A U10G U11A C12A C13U | 1.24 |
| U7C U8A U10G U11A C12A C13A | 1.14 |
| U7C U8A U10G U11A C12A C13G | 1.08 |
| U7C U8A U10G U11G C12A C13G | 1.09 |
| U7C U8A U10G U11G C12A C13U | 1.29 |
| U7C U8A U10G U11G C12A C13A | 1.18 |
| U7C U8C G9A U10A U11C C13G | 1.04 |
| U7C U8C G9A U10A U11C C13U | 1.11 |
| U7C U8C G9A U10A U11C C13A | 1.16 |
| U7C U8A U10C U11G | 1.34 |
| U7C U8A U10C U11C | 1.05 |
| U7C U8A U10C U11A | 1.16 |
| U7C U8C G9A U10A U11A C12G | 1.33 |
| U7C U8C G9A U10A U11A C12U | 1.41 |

| Variant | aptazyme ON/OFF ratio |
| --- | --- |
| U7C U8C G9A U10A U11A C12A | 1.5 |
| U7C U8C G9A U10C U11A C12G C13U | 1.13 |
| U7C U8C G9A U10C U11A C12G C13G | 1.19 |
| U7C U8C G9A U10C U11A C12G C13A | 1.26 |
| U7C U8A U10G | 1.37 |
| U7C U8A U11A C12G C13A | 1.09 |
| U7C U8A U11A C12G C13U | 1.12 |
| U7C U8A U11A C12G C13G | 1.16 |
| U7C U8C G9A U10C U11G C12U | 1.21 |
| U7C U8C G9A U10C U11G C12G | 1.36 |
| U7C U8C G9A U10C U11G C12A | 1.26 |
| U7C U8A U10G U11A | 1.06 |
| U7C U8A U10G U11G | 1.24 |
| U7C U8A U10G U11C | 1.07 |
| U7C U8C G9A U10C U11A C13U | 1.45 |
| U7C U8C G9A U10C U11A C13A | 1.41 |
| U7C U8C G9A U10C U11A C13G | 1.04 |
| U7C U8A U11A C12A C13U | 1.26 |
| U7C U8A U11A C12A C13A | 1.12 |
| U7C U8A U11A C12A C13G | 1.08 |
| U7C U8C G9A U10A U11C C12U | 1.2 |
| U7C U8C G9A U10A U11C C12G | 1.23 |
| U7C U8C G9A U10A U11C C12A | 1.37 |
